Laboratory results as given in article doi:10.1101/2020.06.22.166298.

Molecular target: MBP-FhtR (Faecalis heme transport Regulator fused to the maltose binding protein) (Enterococcus faecalis OG1RF)
Test: SEC

“MBP-FhtR (Faecalis heme transport Regulator fused to the maltose binding protein) (natural protein)” was tested, and the stoichiometry N was 2.
